± gives the uncertainty stated by the source.
Test: protein stability index of a GFP-peptide fusion (yeast GPS) (PSI 1-4); higher = more stable; sorted into four equal gates, so the index is relative within each strain
Procedure, shortened: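 Tiled 17-residue yeast protein peptides were fused downstream of GFP in a plasmid that also expresses Cherry, and the pooled library was carried in yeast. Mid-log cultures in leucine-free medium were sorted into four equal gates by GFP/Cherry fluorescence ratio, and plasmids from each gate were PCR-amplified and Illumina-sequenced, with reads assigned to strains by barcodes. The protein stability index for each peptide was each gate's read frequency times its gate number, summed.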

Row | Sequence | protein stability index (doa10∆) | protein stability index (pdr5∆) | protein stability index (san1∆) | protein stability index (ubr1∆)
1 | ANVDQISFLEPINLKFL [YMR129W/POM152] | 2.75 ± 0.057 | 2.89 ± 0.077 | 2.92 ± 0.054 | 2.91 ± 0.048
2 | HLELYTSQYGTPSTETA [PRE3] | 1.39 ± 0.043 | 1.9 ± 0.04 | 1.44 ± 0.084 | 1.64 ± 0.037
3 | IKWENAFVSVYSKNNPN [PRP8] | 2.11 ± 0.057 | 2.77 ± 0.05 | 3.07 ± 0.053 | 2.61 ± 0.031
4 | FGSGTQNNNTLGGGGLF [YGR119C/NUP57] | 3.37 ± 0.083 | 2.94 ± 0.089 | 3.07 ± 0.061 | 3.11 ± 0.054
5 | SYDCTGVNELAPIPKGR [POP1] | 2.84 ± 0.061 | 2.79 ± 0.057 | 3.01 ± 0.055 | 3 ± 0.042
6 | SIREQVHMYHKSLALLG [SNF5] | 1.81 ± 0.041 | 1.74 ± 0.041 | 2.37 ± 0.095 | 2.06 ± 0.045
7 | QLKHTKLALAENDTNMN [SMC4] | 3.13 ± 0.079 | 3.12 ± 0.097 | 3.25 ± 0.07 | 3.17 ± 0.048
8 | FKKSKIDHINEESWEKV [SCL1] | 2.78 ± 0.062 | 3.05 ± 0.067 | 2.84 ± 0.049 | 2.69 ± 0.039
9 | FDINRSHKEGRRVPKEL [SEC65] |  | 2.52 ± 0.24 |  | 
10 | DDISRQVARTNLDGTKA [ROX3] | 3.12 ± 0.096 | 2.88 ± 0.091 | 3.09 ± 0.087 | 3.11 ± 0.071
11 | RGMLGLLEPPAKELQGI [RPO31] | 2.08 ± 0.18 | 1.72 ± 0.18 | 3.28 ± 0.096 | 3.23 ± 0.16
12 | IGKDTFVTRKSRKRAKK [PRP8] | 3.01 ± 0.092 | 2.84 ± 0.096 | 2.87 ± 0.078 | 3.25 ± 0.049
13 | TEYRGTLVSTDNYFNLQ [SMX3] | 1.83 ± 0.038 | 2.65 ± 0.046 | 2.4 ± 0.059 | 2.23 ± 0.041
14 | SAVKPRPLKLERGFACI [FAS1] | 2.16 ± 0.092 | 2.36 ± 0.064 | 2.06 ± 0.082 | 2.42 ± 0.071
15 | ARCYRYQKNKPYPKSRY [RPL10] | 2.3 ± 0.064 | 2.38 ± 0.065 | 2.41 ± 0.055 | 2.77 ± 0.057
16 | ETISKLNEYKRETLVKT [SMC2] | 2.02 ± 0.059 | 1.99 ± 0.046 | 2.19 ± 0.062 | 2.57 ± 0.034
17 | YKVMHQIRACKDLKHII [PRP8] | 2.27 ± 0.041 | 2.41 ± 0.046 | 2.21 ± 0.052 | 2.19 ± 0.05
18 | TGDADEPELRVLSTEEI [RPO21] | 3.59 ± 0.13 | 3.25 ± 0.099 | 3.49 ± 0.064 | 3.43 ± 0.06
19 | SSQNNSELAPIEEHPTV [IRR1] |  |  |  | 3.14 ± 0.17
20 | NKIINWEISNPDFLSKY [NUT1] | 2.06 ± 0.047 | 2.41 ± 0.045 | 2.11 ± 0.11 | 1.8 ± 0.05

Row | Sequence | protein stability index (doa10∆) | protein stability index (pdr5∆) | protein stability index (san1∆) | protein stability index (ubr1∆)
21 | DEADKMIDLGFEDQVTN [PRP28] | 3.16 ± 0.098 | 3.34 ± 0.11 | 3.16 ± 0.11 | 3.1 ± 0.061
22 | VHKLRHYLVNLTSPAFG [GRR1] | 1.24 ± 0.04 | 1.38 ± 0.035 | 1.34 ± 0.077 | 1.21 ± 0.031
23 | TAKKTNRSAYDSKNTPN [YDL088C/ASM4] | 2.68 ± 0.089 | 2.78 ± 0.065 | 2.94 ± 0.052 | 2.9 ± 0.084
24 | EEKEEEAAEESDDDMGF [RPP1B] | 3.19 ± 0.06 | 3.23 ± 0.065 | 3.09 ± 0.048 | 3.31 ± 0.036
25 | VLKTLIEKFEQVPDSLD [RPN6] | 3.16 ± 0.093 | 3.21 ± 0.081 | 3.37 ± 0.06 | 3.21 ± 0.086
26 | VKGKNCVVLGCERRSTL [PRE6] |  |  | 2.84 ± 0.23 | 
27 | PNMSICIFGDAFDVDRA [RPL1A] | 2.78 ± 0.071 | 2.52 ± 0.072 | 1.78 ± 0.084 | 2.4 ± 0.089
28 | GQVSMSQFNGSGNGSNP [PGD1] | 3.3 ± 0.11 | 3.3 ± 0.12 | 2.93 ± 0.077 | 3.2 ± 0.068
29 | ALDYLIPPPMPKNQQYR [MED7] | 2.53 ± 0.08 | 2.58 ± 0.1 | 2.5 ± 0.096 | 2.6 ± 0.078
30 | EMGKTDKSTKTAEAPTL [YOR098C/NUP1] | 3.1 ± 0.16 | 3.25 ± 0.15 | 2.89 ± 0.064 | 2.86 ± 0.14
31 | AGQLALDLANSGDESNV [YDL116W/NUP84] | 2.93 ± 0.29 |  | 2.71 ± 0.26 | 3 ± 0.12
32 | FGVSFIYAGYDDRYGYQ [PRE9] | 2.33 ± 0.09 | 2.61 ± 0.097 | 2.04 ± 0.19 | 2.45 ± 0.11
33 | AETQGSKVVIDSIIDNI [IRR1] | 2.79 ± 0.098 | 3.26 ± 0.07 | 3.08 ± 0.12 | 2.99 ± 0.039
34 | MFLEFQSTQTDLEKTER [SMC2] | 3.31 ± 0.1 | 2.8 ± 0.14 | 2.86 ± 0.25 | 2.64 ± 0.15
35 | KLNTFENDLLQEFDSEL [SMC3] | 3.22 ± 0.13 | 3.3 ± 0.11 | 3.03 ± 0.1 | 2.78 ± 0.1
36 | TYLNEVLEKDAAIVKKY [YGR119C/NUP57] | 3.27 ± 0.11 | 3.37 ± 0.093 | 2.99 ± 0.076 | 3.08 ± 0.069
37 | ADCQAELTKTKSSLYSA [YIL149C/MLP2] | 2.6 ± 0.055 | 2.59 ± 0.055 | 2.46 ± 0.069 | 2.23 ± 0.045
38 | LIGCIDEAKDFIVSGTA [PUP3] | 2.59 ± 0.058 | 2.67 ± 0.061 | 2.66 ± 0.053 | 3.01 ± 0.044
39 | PFNQGSKQDVEALIEFI [FAS2] | 3.08 ± 0.073 | 3.15 ± 0.076 | 3.01 ± 0.079 | 3.08 ± 0.061
40 | RDALRNIKNTNEEATPI [RRP6] | 2.76 ± 0.07 | 2.99 ± 0.081 | 2.86 ± 0.06 | 2.94 ± 0.064
